Results: patent US20240350646A1, “METHODS AND COMPOSITIONS FOR DELIVERY TO AND ACROSS THE BLOOD BRAIN BARRIER” (NUtech Ventures, priority 2021, published 2024)
Like-named read-outs stand apart in the source and are kept apart here.

Tests used:
[1] = middle aged humans of around 40 years of age; cited from earlier work
human claudin-1 = target: T1, human claudin-1 (Homo sapiens, UniProt O95832); assay: Microscale thermophoresis (MST) binding
T1 construct: made in house
T1 sequence (O95832 1-211): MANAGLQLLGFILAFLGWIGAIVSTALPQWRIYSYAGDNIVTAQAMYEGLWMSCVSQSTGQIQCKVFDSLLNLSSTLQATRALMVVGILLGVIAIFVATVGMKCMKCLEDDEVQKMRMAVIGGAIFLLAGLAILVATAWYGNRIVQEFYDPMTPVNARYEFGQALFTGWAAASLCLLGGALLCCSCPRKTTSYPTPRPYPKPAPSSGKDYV
Protocol: Human claudin-1 was expressed and purified as reported previously (Vecchio & Stroud, 2019, PNAS USA, 116:17817-24). MST measurements were performed using a Monolith instrument (NanoTemper Technologies). For experiments with human claudin-1, the assay buffer contained 10 mM Tris HCl, pH 8.0, 100 mM NaCl, 4% glycerol, and 0.04% n-Dodecyl-β-D-Maltopyranoside (β-DDM). NPs and peptides were labeled with AF647 prior to MST analysis as described above. For the binding experiments, the concentration of human claudin-1 was varied from 2.2-73,500 nM and the AF647-labeled C1C2-NP was fixed at 70 nM, while the AF647 labeled NPs and AF647 labeled C1C2 peptide were fixed at 1 and 0.3 μM, respectively. Binding of the AF647 labeled C1C2-NP to human claudin-3, -4, and -9 were tested using 0.4-14000 nM, 0.8-28000 nM, and 0.6-20000 nM, respectively; with the AF647 labeled C1C2-NP fixed at 70 nM. This assay buffer was similar, except β-DDM was replaced with 0.1% n-Undecyl-β-D-Maltopyranoside (beta-UDM). In order to check non-specific binding of β-DDM micelles to the AF647 labeled C1C2-NP, the concentration of beta-DDM was varied from 0.03-900 μM and the concentration of the AF647-labeled C1C2-NP was fixed at 1 μM. A similar experiment was performed wherein the concentration of beta-UDM was varied from 0.3-10,000 μM and the concentration of AF647-labeled control NP was fixed at 1 μM. The non-specific binding of human claudins 4 and 9 to the NP was examined by varying the concentrations of human claudins 4 and 9 from 0.7-20,100 nM and 0.8-31,100 nM, respectively. The human claudin sub-dilutions were mixed with the NPs or peptides and loaded in standard monolith NT.115 capillary tubes for measurement. All experiments were conducted at 23° C. using the nano-red channel of the Monolith instrument and the data were analyzed by using either Monolith analysis software or Graph Pad Prism, version 9 (Graph Pad Software, San Diego, California).

Compound	K^trans, hippocampus [1] [min⁻¹]	Binding to human claudin-1 (in words) (human claudin-1)	Binding to human claudin-1 (in words) (human claudin-1; listed as C1C2 peptides)
CNC[C@H](O)[C@@H](O)[C@H](O)[C@H](O)CO.CNC[C@H](O)[C@@H](O)[C@H](O)[C@H](O)CO.O=C([O-])CN(CCN(CC(=O)[O-])CC(=O)O)CCN(CC(=O)O)C(COCc1ccccc1)C(=O)[O-].[Gd+3] (stereo not drawn) [MultiHance]	~0.001		
C1C2 peptide: Peptide SSVSQSTGQIQSKVDSLLNLNSTQATR (SEQ ID NO: 6) purchased from Genscript; binds first extracellular loop of claudin-1 (Ac-SSVSQSTGQIQSKVDSLLNLNSTQATR-NH2)		little binding	no binding
